From patent publication US20030145347

What was measured:
[1] = molecular target: rice thioredoxin with S-tag (recombinant, expressed in E. coli from pNOV4113)
[2] = molecular target: soybean thioredoxin prep without S-tag (recombinant, expressed in E. coli from pNOV4112, S-Tag removed by thrombin cleavage)
[3] = molecular target: soybean thioredoxin with S-tag (recombinant, expressed in E. coli from pNOV4112)
[4] = molecular target: wheat thioredoxin with S-tag (recombinant, expressed in E. coli from pNOV4114)

B1: E. coli thioredoxin reductase (T-7915, Sigma, St. Louis, Mo.) (protein)
chain: GTTKHSKLLILGSGPAGYTAAVYAARANLQPVLITGMEKGGQLTTTTEVENWPGDPNDLTGPLLMERMHEHATKFETEIIFDHINKVDLQNRPFRLNGDNGEYTCDALIIATGASARYLGLPSEEAFKGRGVSACATCDGFFYRNQKVAVIGGGNTAVEEALYLSNIASEVHLIHRRDGFRAEKILIKRLMDKVENGNIILHTNRTLEEVTGDQMGVTGVRLRDTQNSDNIESLDVAGLFVAIGHSPNTAIFEGQLELENGYIKVQSGIHGNATQTSIPGVFAAGDVMDHIYRQAITSAGTGCMAALDAERYLDGLADAK
With B1 the “reduction of thioredoxin, DTNB assay” value [1] was “can also reduce rice thioredoxin”, the “reduction of thioredoxin, DTNB assay” value [2] was “can reduce soybean thioredoxin with and without the S-tag” and the “reduction of thioredoxin, DTNB assay” value [3] was “can reduce soybean thioredoxin with and without the S-tag”. The “reduction of thioredoxin, DTNB assay” value [4] was “Wheat thioredoxin can be reduced by E. coli thioredoxin reductase”.
